Experimental data: patent publication US12397036B2, “Peptide exchange protein” (Cambridge Enterprise Limited, priority 2018, dated 2025)

Assays:
Format in all cases: cell-based
[1] = target: T1, HLA-A2 on SKBR3 and MCF-7 cells (Homo sapiens, UniProt P04439, D140Y/D185E/D98H/E176V/E277Q/G131W/G231S/I119V/I121R/I166T/I218V/L300P/L318F/N151K/N90K/P208A/P217A/Q86G/Q94H/R138H/R169H/T345S); assay: YLL* peptide loading on breast cancer cell lines; details: for loading of antigenic peptide onto MCF-7 and SKBR3 cells: 100 nM protein, YLL* peptide
T1 construct: endogenous in cells; host or cells: SKBR3 and MCF-7
Protocol: (§1) Bar graphs show (B) the binding YLL* peptide and (C) the binding of TCR-like mAb reagent LMP-1 which recognises the EBV specific peptide YLL in the context of HLA-A2, when SKBR3 and MCF-7 cells were incubated with no peptide, peptide alone, or peptide in the presence of 100 nM soluble TAPBPR or 100 nM TAPBPR-Her2 antibody fusion protein.

HLA-A2 = target: T2, HLA-A2 (Homo sapiens, UniProt P04439, D140Y/D185E/D98H/E176V/E277Q/G131W/G231S/I119V/I121R/I166T/I218V/L300P/L318F/N151K/N90K/P208A/P217A/Q86G/Q94H/R138H/R169H/T345S); assay: NLV* and YLL* viral peptide loading on HeLaM-ABC^KO cells -/+ HLA-A2; details: for loading of viral peptides NLV* and YLL* onto surface expressed HLA-A2: 10 nM peptide 15 min
T2 construct: expressed in transfected cells; host or cells: HeLaM-HLA-ABC-KO
Protocol: For the histograms in A & C 100 nM of the indicated recombinant TAPBPR protein was used. […] The TCR is specific for […] peptide presented on HLA-A2 molecules.

[2] = target: T3, YLL/HLA-A2 complexes on SKBR3 and MCF-7 cells (Homo sapiens, UniProt P04439, D140Y/D185E/D98H/E176V/E277Q/G131W/G231S/I119V/I121R/I166T/I218V/L300P/L318F/N151K/N90K/P208A/P217A/Q86G/Q94H/R138H/R169H/T345S); assay: TCR-like mAb LMP-1 staining of breast cancer cell lines
T3 construct: endogenous in cells; host or cells: SKBR3 and MCF-7
Protocol: as §1

HLA-A*68:02 = target: T4, HLA-A*68:02 (Homo sapiens, UniProt P04439, A269V/D140Y/D185E/E176V/E277Q/E87N/F33Y/G231S/I121R/I166T/I218V/L180W/L300P/L318F/N151K/P208A/P217A/Q86R/R138H/R169H/S129P/T345S/V36M); assay: ETV* peptide loading on HeLaM, HeLaM+Her2 and HeLaM^Her2KO cells; details: Her2-dependent; 10 nM peptide 15 min
T4 construct: HLA-A68 (MHC class I) expressed on HeLa; endogenous in cells; host or cells: HeLaM and derivatives (TAPBPR-KO with or without TAPBPR/tapasin constructs, +Her2, Her2-KO, +PDL1, pD-GFP); in some arms HeLaM-HLA-ABC-KO re-expressing HLA-A*68:02
Text: Note, there is endogenous Her2 on HeLa.

[3] = target: T5, HLA-A68 (MHC class I) expressed on HeLa cells (Homo sapiens, UniProt P04439, A269V/D140Y/D185E/E176V/E277Q/E87N/F33Y/G231S/I121R/I166T/I218V/L180W/L300P/L318F/N151K/P208A/P217A/Q86R/R138H/R169H/S129P/T345S/V36M); assay: ETV* peptide loading on HeLa cells by exogenous mouse TAPBPR
T5 construct: HLA-A68 (MHC class I) expressed on HeLa; endogenous in cells; host or cells: HeLaM and derivatives (TAPBPR-KO with or without TAPBPR/tapasin constructs, +Her2, Her2-KO, +PDL1, pD-GFP); in some arms HeLaM-HLA-ABC-KO re-expressing HLA-A*68:02

Row | Molecule | loading of antigenic peptide onto MCF-7 and SKBR3 cells [1] | loading of antigenic peptide onto MCF-7 and SKBR3 cells ([1]; listed as TAPBPR-her 2 antibody fusion protein) | peptide loading on SKBR3 cell line ([1]; low MHC I expression) | peptide loading on cells lacking HLA-A, -B and -C expression (HLA-A2) | loading of viral peptides NLV* and YLL* onto surface expressed HLA-A2 (HLA-A2) | loading of viral peptides NLV* and YLL* onto surface expressed HLA-A2 (HLA-A2; listed as TAPBPR-Her2-svFc) | YLL/HLA-A2 complexes accessible for TCR binding versus soluble TAPBPR+peptide or peptide alone [2] | binding of TCR-like mAb LMP-1 to treated cells ([2]; fusion protein and peptide) | loading of exogenous peptide ETV* onto surface of HeLaM cells (HLA-A*68:02) | loading of ETVSK*QSNV (ETV*) to HLA-A68 [3] | peptide loading efficiency relative to human TAPBPR [3]
1 | TAPBPR-Her2-scFv: recombinant TAPBPR fused to a scFv specific for Her2; SEQ ID NO: 8 (protein, TAPBPR-Her2scFv) MGTQEGWCLLLCLALSGAAETKPHPAEGQWRAVDVVLDCFLVKDGAHRGALASSEDRARASLVLKQVPVLDDGSLEDFTDFQGGTLAQDDPPIIFEASVDLVQIPQAEALLHADCSGKEVTCEISRYFLQMTETTVKTAAWFMANVQVSGGGPSISLVMKTPRVAKNEVLWHPTLNLPLSPQGTVRTAVEFQVMTQTQSLSFLLGSSASLDCGFSMAPGLDLISVEWRLQHKGRGQLVYSWTAGQGQAVRKGATLEPAQLGMARDASLTLPGLTIQDEGTYICQITTSLYRAQQIIQLNIQASPKVRLSLANEALLPTLICDIAGYYPLDVVVTWTREELGGSPAQVSGASFSSLRQSVAGTYSISSSLTAEPGSAGATYTCQVTHISLEEPLGASTQVVPPERRHVGGGGSGGGGSGGGGSTSADLGSRAMAQVQLVQSGAEVKKPGESLKISCKGSGYSFTSYWIAWVRQMPGKGLEYMGLIYPGDSDTKYSPSFQGQVTISVDKSVSTAYLQWSSLKPSDSAVYFCARHDVGYCSSSNCAKWPEYFQHWGQGTLVTVSSGGGGSGGGGSGGGGSQSVLTQPPSVSAAPGQKVTISCSGSSSNIGNNYVSWYQQLPGTAPKLLIYDHTNRPAGVPDRFSGSKSGTSASLAISGFRSEDEADYYCASWDYTLSGWVFGGGTKLTVLGAAAGGGGS | efficiently loads antigenic peptides onto both of these breast cancer cell lines | works extremely efficiently on both these breast cancer cell lines | efficient peptide loading | no peptide loading was observed | could load fluorescent variants | shown to load viral peptides onto HeLa cells expressing HLA-A2 | significantly more YLL/HLA-A2 complexes were accessible for TCR binding | bound extremely well | very efficient at loading exogenous peptide | – | –
2 | mouse TAPBPR: exogenous luminal domains of mouse TAPBPR; SEQ ID NO: 22 (protein, luminal domains of mouse TAPBPR) DPPTAPTTAERQRQPTDIILDCFLVTEDRHRGAFASSGDRERALLVLKQVPVLDDGSLEGITDFQGSTETKQDSPVIFEASVDLVQIPQAEALLHADCSGKAVTCEISKYFLQARQEATFEKAHWFISNMQVSRGGPSVSMVMKTLRDAEVGAVRHPTLNLPLSAQGTVKTQVEFQVTSETQTLNHLLGSSVSLHCSFSMAPDLDLTGVEWRLQHKGSGQLVYSWKTGQGQAKRKGATLEPEELLRAGNASLTLPNLTLKDEGTYICQISTSLYQAQQIMPLNILAPPKVQLHLANKDPLPSLVCSIAGYYPLDVGVTWIREELGGIPAQVSGASFSSLRQSTMGTYSISSTVMADPGPTGATYTCQVAHVSLEEPLTTSMRVLPNPEQRGT | – | – | – | – | – | – | – | – | – | shown to load fluorescent human neoantigen peptide | less efficient than human TAPBPR
